One series has as its system CD1 male mice. As to the kind of experiment: In vivo bioluminescence imaging of mice injected with AAV9 constructs, induction by phenobarbital. On the procedure: • Seed HEK 293-AAV cells in 15 cm plates. To be 70-80% confluent on the day of transfection • Final volume on each plate: 15 ml Day 2: Prepare Transfection Mix: • DNA mix/plate: pDG9 (Packaging plasmid for AAV9): 10.5 μg/pHGTI (Ad. Helper plasmid): 31.5 μg/Vector plasmid: 10.5 μg/Prepare in serum free DMEM/Optimem • Transfer mix/plate: PEI: 125 μl/Prepare in serum free DMEM/Optimem • Add DNA mix into transfection mix. Mix and leave at room temperature for 15-20 mins. • Add 3 ml of transfection mix to each plate drop-wise and gently distribute. Incubate for 24 h. Day 3: • Replace media with 15 ml DMEM supplemented with P/S and 2% FCS. Leave for 48 h. Day 5: • Collect supernatant and pool in 50 ml tubes, 25 ml each tube. Store at −20° C. • Collect cells: Add 5 ml of PBS to each plate→scrape and collect in 50 ml tubes. • To wash plates, add another 1 ml of PBS and collect. • Spin at 1500 rpm for 5 mins. • Remove supernatant and resuspend pelleted cells in 1 ml/plate TD lysis buffer→pool • Store at −80′C. Endonuclease Treatment Cells: • Freeze and thaw pellets 5 times→˜20 mins at 37° C. then ˜20 mins in dry ice (or −80° C.). • Add 25 μl/ml cells of 20% Deoxycholate (or 50 μl/ml of 10% Deoxycholate). • Add 8 μl/ml cells of benzonase. • Incubate at 37° C. for 30 mins. • Spin at 4 Krpm for 30 mins. • Filter supernatant using […] filters. • Store at 4° C. for up to 24 h. Supernatant: • Add 2.5 μl/25 ml supernatant of benzonase. • Add 50 μl/25 ml supernatant of MgSO4. • Incubate at 37° C. for 30 mins. • Spin at 4 Krpm for 30 mins. • Filter supernatant using […] filters. • Store at 4′C for up to 24 h. Hplc Purification • Place both lines in 20% ETOH→template→system wash • Put line A in PBS and line B in Glycine→template→system wash • Place the column in the machine→manual run→flowrate: 5 ml/min→Run for 25 ml or until the UV line is flat. • Prepare FACS tubes (10 for cells and more for supernatant): add 30 μl/tube Tris→put in the machine to collect vectors. • Place the waste lines in a separate tube to be able to run them again through the column. • Run samples (flowrate low, depending on how fast the system and how concentrated the sample is; for cells it is slower, for supernatant it is higher). • After running the waste through the column, wash with PBS→flowrate: 5 ml/min until the UV line is flat. • Set→fraction size: 1 ml; Flowrate: 1 ml/min; concentration % B: 100%→run. • Start collecting: Look for the peak. The peak indicates vector purification. Mark the tubes containing these vectors. • Save programme before exiting. • Wash with PBS→75 ml, 5 ml/min • Wash with Na3PO4 (to store the column in)→75 ml, 5 ml/min • Remove column and store at 4° C. • Wash the machine with PBS→template→system wash • Wash the machine with 20% ETOH→template→system wash • Put both lines in 20% ETOH and shut down • Add 2 L of PBS into a big bucket and put the Dialysis cassette (Side-A-Lyzer; Thermo scientific) to prime. • Collect the vectors from the marked FACS tubes using a syringe and needle and add into the dialysis cassette→remove excess air from the membrane, carefully place the rubber on top of the cassette and let it float in the PBS-containing bucket→leave over night at room temperature on a slow rotating rotor. Next Day: • Prime membrane by adding 5 ml PBS onto a centrifugal filter (Amico Ultra 15; MERCK)→spin for 5 mins at 4 Krpm • Remove excess PBS from inside the membrane. • Take vectors out from the cassette and load onto the membrane→spin for 5 mins at 4 Krpm • Wash the membrane with the vectors inside few times, then collect into 2 ml centrifuge tube filter 0.22 μM (Spin-X; COSTAR) • Spin for 3 mins at 13 Krpm. • Remove filter and aliquot: 1×100 μl (for injection), the rest in 10-2 μl aliquots. • Store in −80° C. • Virus quantification was performed using qRT-PCR with primers and probes for the luciferase gene. Mice Experiment […]

Series [1] concerns Huh7 and ARE primary cells. As to the kind of experiment: Effect of AAV ITRs: pAAV constructs transfected into Huh7 and ARE primary cells, compared with pGL4.10. It is filed as cell-based, human. The note with it: mean of 3 biological replicates. The source says:
Following from Example 3, it was decided to take PB1-MinTK and PB1-2-MinTk forward for in vivo studies. To facilitate this the two aforementioned constructs were cloned into pAAV vector (Takara, Clontech) to allow for the preparation of AAV viruses. The inserts where cloned using restriction digest of the pAAV plasmid and PCR amplification of the original pGL4.10 constructs.
We investigated the effect of the Inverted Terminal Repeats (ITRs) on the activity of the promoters. This was done as we have observed interference from the AAV ITRs in other projects. To this end, the pAAV-PB1-MinTk and pAAV-PB1-2-MinTk were transfected into Huh7 and ARE primary cells as previously described and their activity assessed.

For a further series, the system named is AXOL ARE-hepatocytes. The series can be described thus: Luciferase expression from PBREM promoters in AXOL ARE-hepatocytes, induction by CITCO. It is filed as cell-based, human. To be noted: induction with CITCO, mean of 3 biological replicates. The source says: Axol Assay-Ready Expanded (ARE) Hepatocytes are primary human hepatocytes that have been expanded in vitro. Large batch sizes (up to 2000 vials) are available, ensuring a reliable, ready-to-use and consistent source of primary hepatocytes. ARE Hepatocytes express CYP enzymes, are metabolically functional, are polarized and can be infected by the Hepatitis C virus. AXOL ARE-hepatocytes express CAR negating the need to transfect with a CAR-expressing plasmid.
• AXOL assay-ready expanded (ARE) hepatocytes (Axol, ax3701) • ARE hepatocyte thawing medium (Axol, ax3705) • ARE maintenance medium (Axol, ax3710) • Virimer red transfection reagent (Lipocalyx, VR04-02-15) • CITCO, lucifierase, β-galactosidase and BCA kits as described above
ARE hepatocytes were cultured and transfected as described in the manufacturer's manual. 200,000 cells were seeded in 2 ml culture medium in collagen-coated 6 well plate. The cells were incubated for 4 h at 37° C. and 5% CO2 for sufficient adhesion. 200 μl of transfection mixture containing the DNA to be transfected (PB1-MinTK/PB1-CMV/PB1-SV40 operably linked with luciferase and β-galactosidase containing promoter) was added and the cells were incubated on an orbital shaker at 100 rpm for three hours at 37° C. and 5% CO2. 3 hrs after transfection CITCO was added to the appropriate wells. Cells were incubated under static conditions at 37° C. and 5% CO2 overnight and in the morning the medium was replaced with fresh ARE Hepatocyte Maintenance Medium. Readout was 24 hrs after induction. […]

In a further series the test system is AXOL ARE hepatocytes. The series can be described thus: Luciferase expression from pAAV constructs in AXOL ARE hepatocytes without CITCO, with CITCO and after CITCO withdrawal. The class given is cell-based, human. To be noted: pAAV vector. On the procedure: Luciferase expression from the PB1-MinTK and PB1-2-MinTK constructs in the pAAV vector in AXOL ARE hepatocytes is inducible by CITCO (1 μM) but reduces after removing CITCO as shown in FIG. 5.

Where [2] appears, read: AAV9, phenobarbital intraperitoneally.

B1: PB1-2-MinTK: promoter: 3×PBREM and min-TK promoter, SEQ ID NO: 11 (nucleic acid)
DNA: TCTGTACTTTCCTGACCTTGGCACAGTGCCACCATCAACTTGCCTGACACCCATTACTCGCATCCATTCTCTCTGTACTTTCCTGACCTTGGCACAGTGCCACCATCAACTTGCCTGACACCGCACTGAAGGTCCTCAATCGTCTGTACTTTCCTGACCTTGGCACAGTGCCACCATCAACTTGCCTGACACCGCTGGGAGTTCGTAGACGGAGATCCGGCCCCGCCCAGCGTCTTGTCATTGGCGAATTCGAACACGCAGATGCAGTCGGGGCGGCGCGGTCCGAGGTCCACTTCGCATATTAAGGTGACGCGTGTGGCCTCGAACACCGAGCGACCCTGCAGCGACCCGCTTAACAGCGTCAACAGCGTGCCGCAGATCTCGAGGAGCTTGGCGAGATTTTCAGGAGCTAAGGAAGCTAAAC
modifications: PB1-2-MinTk (3xPBREM)
Consider B1, for which the “luciferase expression before induction” value in the series on CD1 male mice (0 hrs) is recorded as “no expression of the luciferase gene”. Further, in the series with CD1 male mice (setting [2]), the “time at which induction is complete” value was 48 h and the “time of maximal activity after induction” value worked out at 24 h. Also, in the series on CD1 male mice (AAV9 via tail vein), the “tissue distribution of luciferase expression” value is on record as “confined to the liver”. The “induction of luciferase expression across pGL4.10 and pAAV vectors and cell types” value in series [1] is “comparable across vectors and cell types”. In addition, the “induced luciferase expression as a ratio to CMV-IE” value with AXOL ARE-hepatocytes is 4.1. Also, the “luciferase expression with CITCO” value in the series with AXOL ARE hepatocytes (CITCO (1 μM)) was “inducible”. Besides, the “activity of the promoter after removal of CITCO” value in the series on AXOL ARE hepatocytes (CITCO withdrawal) was “almost baseline levels”.

The record behind these values is US12472269B2, “Liver-specific inducible promoters and methods of use thereof” (ASKBIO INC., priority 2019, dated 2025).
